According to patent US20250122303A1, “TREATMENT AND PREVENTION OF CANCER USING HER3 ANTIGEN-BINDING MOLECULES” (Hummingbird Bioscience Pte. Ltd., priority 2021, published 2025):

How the values were obtained:
[1] = target: T1, human HER3 (HEK293 HER3 O/E cells) (Homo sapiens, UniProt P21860); test: Cell surface antigen-binding by flow cytometry
T1 construct: expressed in transfected cells; host or cells: HEK293
Description: The cells were washed thrice with FACS buffer (PBS with 5 mM EDTA and 0.5% BSA) and resuspended in FITC-conjugated anti-FC antibody (Invitrogen, USA) for 40 min at 2-8° C. Cells were washed again and resuspended in 200 μL of FACS flow buffer (PBS with 5 mM EDTA) for flow cytometric analysis using MACSQuant 10 (Miltenyi Biotec, Germany). After acquisition, all raw data were analyzed using Flowlogic software. Cells were gated using forward and side scatter profile percentage of positive cells was determined for native and overexpressing cell populations.
The cells were washed with buffer (PBS with 2 mM EDTA and 0.5% BSA) and resuspended in FITC-conjugated anti-FC antibody (Invitrogen, USA) at 10 μg/ml for 20 min at 4° C. Cells were washed again and resuspended in 200 μL of FACS flow buffer (PBS with 5 mM EDTA) for flow cytometric analysis using MACSQuant 10 (Miltenyi Biotec, Germany). Unstained WT and transfected HEK293 cells were included in the analysis as negative controls. After acquisition, all raw data were analyzed using Flowlogic software. Cells were gated using forward and side scatter profile percentage of positive cells was determined for native and overexpressing cell populations.

hHER3 = hHER3 (Homo sapiens, UniProt P21860); test: BLI binding to HER3 in absence of NRG1 ('closed' conformation)
Description: (§1) In further experiments, anti-HER3 antibodies were analysed in order to determine the affinity of binding to human HER3 in the context of a human HER3:human NRG1 complex (that is, HER3 provided in the ligand-bound, ‘open’ conformation), as compared to the affinity of binding to human HER3 in the absence of NRG1 complex (that is, HER3 provided in the unbound, ‘closed’ conformation).
(§2) Binding of anti-HER3 antibodies to human HER3 was evaluated by BLI. Briefly, anti-Human IgG Capture (AHC) sensors (ForteBio) were loaded with anti-HER3 IgG antibodies (25 nM). Kinetic measurements were performed in absence or presence of NRG1. NRG1 was used at 1:1 molar ratio with HER3 wherein the complex was allowed to form at RT for 2 h. His-tagged human HER3 or HER3-NRG1 complexes were loaded to antibody coated AHC sensors at different concentrations for 120 s, followed by a 120 s dissociation time. All measurements were performed at 25° C. with agitation at 1000 rpm. Sensorgrams were referenced for buffer effects and then analyzed using the Octet QK384-software (ForteBio). Kinetic responses were globally fitted using a one-site binding model to obtain values for association (Kon), dissociation (Koff) rate constants and the equilibrium dissociation constant (KD).

[2] = target: human HER3:human NRG1 complex (Homo sapiens, UniProt P21860); test: BLI binding to HER3-NRG1 complex ('open' conformation); conditions: presence of NRG1 (1:1 molar ratio)
Description: as §1, §2

[3] = system: HEK293 HER3, HCC95, N87 and OVCAR8 cells; test: Antibody internalisation, pHrodo imaging; format: cell-based, human; conditions: 24 hours
Description: Briefly, 100,000 HEK293 cells engineered to express HER3, HCC95, N87 or OVCAR8 cells were seeded in wells of 96-well tissue culture plates and cultured overnight at 37° C. in 5% CO2. […] The cells in culture were imaged every 30 min for 24 hours, in 4 different fields of each well. The maximum signal intensity in the FITC channel of each field was quantified at 24 hours.

[4] = clinical, literature, cited from earlier work
[5] = cited from earlier work

Substance | extent of binding to human HER3-expressing cells ([1]; 10 μg/ml antibody) | extent of binding to human HER3-expressing cells ([1]; 20 μg/ml antibody) | affinity of binding to human HER3 (hHER3) | affinity of binding to human HER3 [2] | internalization ([3]; HEK293 cells overexpressing HER3, 120 nM) | internalization ([3]; OvCar8 cells, 120 nM) | Dose where Saturating PK was observed [4] | T½ (terminal half life) [4] [h] | Cmax (μg/ml) normalised to per mg/kg dosed [4] [µg/mL] | gastrointestinal toxicity DLTs ([5]; human, in vivo) | hypokalaemia and hypomagnesemia DLTs ([5]; in the presence of diarrhoea)
LJM716: anti-HER3 antibody binding domains II and IV, locks HER3 in inactive conformation (Garner et al.) [reference compound] | bind to human HER3-expressing cells to a similar extent | bind to human HER3-expressing cells to a similar extent | subpicomolar affinity | dramatically reduced | significant internalization | Modest to moderate internalization | 10 to 40 mg/kg | 220 to 336 | 19 to 22 | DLTs were reported | DLTs were reported
RG7116 | – | – | – | – | – | – | 400 to 2000 mg | 220 to 288 | 24 to 41 | – | –
